These results are taken from US20250339531A1, “DUX4 POLYPEPTIDES AND NUCLEIC ACIDS FOR TREATING INFLAMMATORY AND AUTOIMMUNE CONDITIONS” (Fred Hutchinson Cancer Center, priority 2021, published 2025).

Experiment [1] addresses 40S ribosomal protein S14 (Homo sapiens) (UniProt P62263). The experiment is described as follows: anti-FLAG co-IP LC-MS, exp 3, +Dox.
Experiment [2] concerns the target Fibronectin (Homo sapiens) (UniProt P02751). The experiment is described as follows: anti-FLAG co-IP LC-MS, exp 3, +Dox.

Sequence of Fibronectin (Homo sapiens) (P02751 32-2477 limits assumed): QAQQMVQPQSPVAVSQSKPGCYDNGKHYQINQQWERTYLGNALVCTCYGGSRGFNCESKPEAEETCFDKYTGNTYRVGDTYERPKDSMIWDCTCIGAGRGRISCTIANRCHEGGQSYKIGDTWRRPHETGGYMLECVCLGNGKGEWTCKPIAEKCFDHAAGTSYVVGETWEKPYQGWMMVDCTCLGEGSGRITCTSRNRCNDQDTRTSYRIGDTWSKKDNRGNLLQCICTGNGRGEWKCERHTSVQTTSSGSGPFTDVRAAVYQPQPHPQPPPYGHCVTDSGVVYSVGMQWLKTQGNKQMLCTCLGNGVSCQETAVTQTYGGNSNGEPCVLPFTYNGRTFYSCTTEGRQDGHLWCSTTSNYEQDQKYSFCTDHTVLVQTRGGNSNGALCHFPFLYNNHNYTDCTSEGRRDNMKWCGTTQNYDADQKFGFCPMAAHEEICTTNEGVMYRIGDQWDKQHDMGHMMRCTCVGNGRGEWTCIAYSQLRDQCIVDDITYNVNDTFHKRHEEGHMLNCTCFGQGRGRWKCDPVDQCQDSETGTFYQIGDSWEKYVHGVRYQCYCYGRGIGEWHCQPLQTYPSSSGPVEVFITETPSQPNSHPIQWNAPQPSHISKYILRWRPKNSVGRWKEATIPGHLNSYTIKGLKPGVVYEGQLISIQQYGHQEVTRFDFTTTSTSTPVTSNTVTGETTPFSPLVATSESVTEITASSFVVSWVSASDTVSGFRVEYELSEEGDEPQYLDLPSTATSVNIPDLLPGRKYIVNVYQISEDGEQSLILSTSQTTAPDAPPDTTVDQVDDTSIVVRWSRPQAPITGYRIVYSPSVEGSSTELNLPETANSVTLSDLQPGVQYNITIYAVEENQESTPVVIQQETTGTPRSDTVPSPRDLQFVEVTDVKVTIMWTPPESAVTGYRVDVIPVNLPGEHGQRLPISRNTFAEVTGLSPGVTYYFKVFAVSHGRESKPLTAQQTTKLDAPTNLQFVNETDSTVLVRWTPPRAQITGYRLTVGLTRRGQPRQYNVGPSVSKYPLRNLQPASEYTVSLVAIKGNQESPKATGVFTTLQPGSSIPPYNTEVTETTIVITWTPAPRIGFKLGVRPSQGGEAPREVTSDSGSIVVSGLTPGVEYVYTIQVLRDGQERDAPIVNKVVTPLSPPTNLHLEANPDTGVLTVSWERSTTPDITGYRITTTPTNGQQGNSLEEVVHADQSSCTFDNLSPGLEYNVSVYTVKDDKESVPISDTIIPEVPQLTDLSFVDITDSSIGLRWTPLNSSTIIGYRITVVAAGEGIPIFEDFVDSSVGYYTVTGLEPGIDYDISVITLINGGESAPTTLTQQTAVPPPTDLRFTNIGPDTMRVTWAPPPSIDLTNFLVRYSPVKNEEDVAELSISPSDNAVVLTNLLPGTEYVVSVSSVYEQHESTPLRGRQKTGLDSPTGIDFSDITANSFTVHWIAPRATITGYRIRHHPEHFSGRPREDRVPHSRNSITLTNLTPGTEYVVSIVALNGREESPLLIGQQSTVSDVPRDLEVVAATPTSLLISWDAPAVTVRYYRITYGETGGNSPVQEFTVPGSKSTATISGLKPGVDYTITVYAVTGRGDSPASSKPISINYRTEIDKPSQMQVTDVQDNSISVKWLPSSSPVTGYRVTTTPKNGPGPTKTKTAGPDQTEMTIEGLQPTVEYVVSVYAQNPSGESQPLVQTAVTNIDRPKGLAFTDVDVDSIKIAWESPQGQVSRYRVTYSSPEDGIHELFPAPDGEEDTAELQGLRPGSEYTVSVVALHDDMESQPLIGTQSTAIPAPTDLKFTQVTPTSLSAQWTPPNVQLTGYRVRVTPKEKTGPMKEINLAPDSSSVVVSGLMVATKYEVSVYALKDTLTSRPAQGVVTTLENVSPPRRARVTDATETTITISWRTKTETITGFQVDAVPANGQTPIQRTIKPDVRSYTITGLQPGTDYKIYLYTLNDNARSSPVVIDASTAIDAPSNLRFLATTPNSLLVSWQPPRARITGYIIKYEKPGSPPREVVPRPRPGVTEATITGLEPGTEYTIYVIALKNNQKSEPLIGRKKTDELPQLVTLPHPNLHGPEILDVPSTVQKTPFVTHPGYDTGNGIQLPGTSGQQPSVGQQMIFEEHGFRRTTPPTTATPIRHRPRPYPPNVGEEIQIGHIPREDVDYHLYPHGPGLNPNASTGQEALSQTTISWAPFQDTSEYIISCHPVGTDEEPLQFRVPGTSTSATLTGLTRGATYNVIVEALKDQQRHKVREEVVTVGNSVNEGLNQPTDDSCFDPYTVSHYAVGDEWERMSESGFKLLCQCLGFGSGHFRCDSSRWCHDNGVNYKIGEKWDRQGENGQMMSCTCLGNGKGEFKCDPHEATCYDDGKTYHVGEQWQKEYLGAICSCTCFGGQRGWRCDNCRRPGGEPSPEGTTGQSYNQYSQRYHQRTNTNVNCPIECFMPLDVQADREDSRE

i3XFLAG-NLS-CTDaa154-424: the PSMs in experiment [1] worked out at 2 PSMs; in experiment [2], 17 PSMs.
